Test results reported in PMC12724371 (2025).

Target: T1, OC43 spike S2 subunit extracellular domain with T4 foldon (HCoV-OC43)
T1 chain: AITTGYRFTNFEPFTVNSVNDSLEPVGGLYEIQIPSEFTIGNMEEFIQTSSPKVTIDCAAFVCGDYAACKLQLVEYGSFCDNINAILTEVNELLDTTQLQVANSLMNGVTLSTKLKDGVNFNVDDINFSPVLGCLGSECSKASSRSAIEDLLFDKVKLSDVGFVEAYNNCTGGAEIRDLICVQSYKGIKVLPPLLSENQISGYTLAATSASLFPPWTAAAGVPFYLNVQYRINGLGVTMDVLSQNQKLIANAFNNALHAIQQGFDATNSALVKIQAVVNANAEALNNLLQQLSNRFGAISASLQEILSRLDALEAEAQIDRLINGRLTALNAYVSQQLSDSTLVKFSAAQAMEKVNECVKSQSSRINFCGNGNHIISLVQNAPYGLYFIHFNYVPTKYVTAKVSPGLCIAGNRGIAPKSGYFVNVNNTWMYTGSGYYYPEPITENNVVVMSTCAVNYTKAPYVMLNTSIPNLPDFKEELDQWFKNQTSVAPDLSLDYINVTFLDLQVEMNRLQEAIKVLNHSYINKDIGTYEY
Experiment: BLI

B1: 1871 Fab (Fab, V domains shown)
VH: EVQLVESGGGLVKPGGSLRLSCVASGFSFSIYSMNWVRQAPGKGLEWVSYISSSSSYKYYADSVKGRFSVSRDNAKNSLYLQLNGLRAEDTAVYYCARDGYCPKGVCTYYGMDVWGQGTTVTVSA
VL: EIVMTQSPATLSVSPGERVTLSCRASQSVRSRLAWFQQKPGQAPRLLIYDASIRATGIPARFSGSGSGTEFTLIISSLQSEDFAVYYCQQYDNWPPAYTFGQGTKLEIK
Question: How did the Kd turn out when B1 was run?
Answer: < 1 pM
